Legend:
[1] = molecular target: the molecule itself; assay: SEC-MALS; purified DnaD variants, size exclusion chromatography followed by multiple angle light scattering
[2] = molecular target: the molecule itself; assay: cross-linking; amine-specific BS^3, SDS-PAGE, immunoblot

Protein	stoichiometry N [1]	stoichiometry N [2]
DnaD, wild type, purified (natural protein, B. subtilis, UniProt P39787 1-232, looked up, DnaD, Bacillus subtilis, the full-length protein; tetramer of about 113 kDa by SEC-MALS (theoretical 110 kDa); also called wild-type DnaD; wild-type tetrameric DnaD) MKKQQFIDMQEQGTSTIPNLLLTHYKQLGLNETELILLLKIKMHLEKGSYFPTPNQLQEGMSISVEECTNRLRMFIQKGFLFIEECEDQNGIKFEKYSLQPLWGKLYEYIQLAQNQTQERKAEGEQKSLYTIFEEEFARPLSPLECETLAIWQDQDQHDAQLIKHALKEAVLSGKLSFRYIDRILFEWKKNGLKTVEQAKIHSQKFRRVQAKQNEPQKEYKRQVPFYNWLEQ	4	
DnaD^F6A, purified (natural protein, B. subtilis, UniProt P39787 1-232, looked up, DnaD, Bacillus subtilis, with F6A; eluted as a 57 kDa species (dimer); The measured mass fits the whole protein) MKKQQAIDMQEQGTSTIPNLLLTHYKQLGLNETELILLLKIKMHLEKGSYFPTPNQLQEGMSISVEECTNRLRMFIQKGFLFIEECEDQNGIKFEKYSLQPLWGKLYEYIQLAQNQTQERKAEGEQKSLYTIFEEEFARPLSPLECETLAIWQDQDQHDAQLIKHALKEAVLSGKLSFRYIDRILFEWKKNGLKTVEQAKIHSQKFRRVQAKQNEPQKEYKRQVPFYNWLEQ	2	
DnaD^K3A (natural protein, B. subtilis, UniProt P39787 1-232, looked up, DnaD, Bacillus subtilis, with K3A, used in BS^3 cross-linking) MKAQQFIDMQEQGTSTIPNLLLTHYKQLGLNETELILLLKIKMHLEKGSYFPTPNQLQEGMSISVEECTNRLRMFIQKGFLFIEECEDQNGIKFEKYSLQPLWGKLYEYIQLAQNQTQERKAEGEQKSLYTIFEEEFARPLSPLECETLAIWQDQDQHDAQLIKHALKEAVLSGKLSFRYIDRILFEWKKNGLKTVEQAKIHSQKFRRVQAKQNEPQKEYKRQVPFYNWLEQ		2
DnaD^1-205, purified (domain or fragment, B. subtilis, UniProt P39787 1-205, looked up, also called DnaD variant lacking the C-terminal tail) MKKQQFIDMQEQGTSTIPNLLLTHYKQLGLNETELILLLKIKMHLEKGSYFPTPNQLQEGMSISVEECTNRLRMFIQKGFLFIEECEDQNGIKFEKYSLQPLWGKLYEYIQLAQNQTQERKAEGEQKSLYTIFEEEFARPLSPLECETLAIWQDQDQHDAQLIKHALKEAVLSGKLSFRYIDRILFEWKKNGLKTVEQAKIHSQK	4	
